“And” between values parts separate entries of the source, which are not always exact repeats. Equal entries are not always repeated. Where two headings read alike, the source gives them in different places.

Experiment [1] deals with human FcγRIIIb (human) (UniProt O75015). As to the kind of experiment: MSD.
Experiment [2] concerns the target human FcγRIIa (R131 allele) (human) (UniProt P12318). As to the kind of experiment: MSD.
The target in experiment [3] is human FcγRIIIa (V158 allele) (human) (UniProt P08637). As to the kind of experiment: MSD.
In experiment [4] the target is human C1q (human) (UniProt P02745). Kind of experiment: MSD.
The target of experiment [5] is human FcγRIIIa (F158 allele) (human) (UniProt P08637). Kind of experiment: MSD.
In experiment [6] the target is human FcγRIIa (H131 allele) (human) (UniProt P12318). As to the kind of experiment: MSD.
The target in experiment [7] is human FcγRIIb (human) (UniProt P31994). Kind of experiment: MSD.
In experiment [8] the target is human C1q (human) (UniProt P02745). Kind of experiment: MSD [cont'd].
In experiment [9] the target is human FcγRIIIa (F158 allele) (human) (UniProt P08637). As to the kind of experiment: MSD [cont'd].
Experiment [10] concerns the target human FcRn (human) (UniProt P55899). Kind of experiment: MSD [cont'd].
Experiment [11] shares this target. As to the kind of experiment: MSD, pH 6 [cont'd].
Experiment [12] addresses human FcγRIIIa (V158 allele) (human) (UniProt P08637).
For experiment [13], the target named is human FcγRIIIa (F158 allele) (human) (UniProt P08637).
The target in experiment [14] is human FcγRIIa (H131 allele) (human) (UniProt P12318).
In experiment [15] the target is human FcγRIIb (human) (UniProt P31994).
For experiment [16], the target named is human C1q (human) (UniProt P02745). As to the kind of experiment: MSD [cont'd]. The source holds these as a separate data set.
In experiment [17] the target is human FcRn (human) (UniProt P55899). As to the kind of experiment: MSD.
For experiment [18], the target named is human FcγRIIIa (V158 allele) (human) (UniProt P08637). Kind of experiment: MSD electrochemiluminescence binding assay; column IIIA_V.
For experiment [19], the target named is human FcγRIIIb (human) (UniProt O75015). Kind of experiment: MSD electrochemiluminescence binding assay; column IIIB.
For experiment [20], the target named is human FcγRIIa (R131 allele) (human) (UniProt P12318). As to the kind of experiment: MSD electrochemiluminescence binding assay; column IIA_R.
The target of experiment [21] is human FcγRIIb (human) (UniProt P31994). As to the kind of experiment: MSD electrochemiluminescence binding assay; column IIB.
The target of experiment [22] is human FcRn (human) (UniProt P55899). As to the kind of experiment: MSD electrochemiluminescence binding assay; column FcRn.
Experiment [23] addresses human FcγRIIIa (F158 allele) (human) (UniProt P08637). As to the kind of experiment: MSD electrochemiluminescence binding assay; column IIIA_F.
In experiment [24] the target is human FcγRIIa (H131 allele) (human) (UniProt P12318). Kind of experiment: MSD electrochemiluminescence binding assay; column IIA_H.
Experiment [25] has as its target human FcγRIIIa (V158 allele) (human) (UniProt P08637). The source holds these as a separate data set.
Experiment [26] concerns the target human FcγRIIIa (F158 allele) (human) (UniProt P08637). The source holds these as a separate data set.
The target of experiment [27] is human FcγRIIIb (human) (UniProt O75015). Kind of experiment: MSD [cont'd].
Experiment [28] deals with human FcγRIIa (R131 allele) (human) (UniProt P12318). Kind of experiment: MSD [cont'd].
Experiment [29] deals with human FcγRIIIa (V158 allele) (human) (UniProt P08637). As to the kind of experiment: MSD [cont'd].
The target in experiment [30] is human FcγRIIa (H131 allele) (human) (UniProt P12318). As to the kind of experiment: MSD [cont'd].
Experiment [31] concerns the target human FcγRIIb (human) (UniProt P31994). Kind of experiment: MSD [cont'd].
Experiment [32] concerns the target human FcγRIIIa (F158 allele) (human) (UniProt P08637). The source holds these as a separate data set.
In experiment [33] the target is human FcγRIIa (H131 allele) (human) (UniProt P12318). This is another data set of the same source.
Experiment [34] addresses human FcγRIIb (human) (UniProt P31994). The source holds these as a separate data set.

human FcRn (human), sequence (P55899 24-297 limits assumed, chain 1 of 2): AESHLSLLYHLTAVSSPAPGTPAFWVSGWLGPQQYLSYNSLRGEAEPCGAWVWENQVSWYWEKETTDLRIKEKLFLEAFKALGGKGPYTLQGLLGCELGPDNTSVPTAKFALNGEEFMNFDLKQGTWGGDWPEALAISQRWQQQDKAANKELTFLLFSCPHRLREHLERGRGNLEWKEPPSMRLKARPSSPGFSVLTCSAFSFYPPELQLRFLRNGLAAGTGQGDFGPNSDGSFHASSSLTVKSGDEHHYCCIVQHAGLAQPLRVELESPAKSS
human FcRn (human), sequence (chain, as listed by the source limits assumed, chain 2 of 2): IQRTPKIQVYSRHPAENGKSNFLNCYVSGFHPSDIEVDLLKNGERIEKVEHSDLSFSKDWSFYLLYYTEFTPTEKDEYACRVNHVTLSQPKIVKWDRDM
human C1q (human), sequence (P02745 23-245 limits assumed, chain 1 of 3): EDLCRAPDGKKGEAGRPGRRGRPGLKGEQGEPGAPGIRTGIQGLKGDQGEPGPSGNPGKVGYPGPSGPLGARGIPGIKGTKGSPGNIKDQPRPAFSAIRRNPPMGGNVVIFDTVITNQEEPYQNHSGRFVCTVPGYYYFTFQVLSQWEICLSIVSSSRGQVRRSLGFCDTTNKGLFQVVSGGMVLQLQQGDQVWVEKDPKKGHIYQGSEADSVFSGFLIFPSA
human C1q (human), sequence (P02746 28-253 limits assumed, chain 2 of 3, further chain): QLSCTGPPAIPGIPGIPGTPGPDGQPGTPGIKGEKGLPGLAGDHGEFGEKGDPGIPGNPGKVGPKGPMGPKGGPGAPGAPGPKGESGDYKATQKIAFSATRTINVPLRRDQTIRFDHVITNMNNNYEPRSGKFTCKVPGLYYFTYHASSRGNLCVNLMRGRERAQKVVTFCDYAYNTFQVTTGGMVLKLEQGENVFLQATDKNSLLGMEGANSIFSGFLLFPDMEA
human C1q (human), sequence (P02747 29-245 limits assumed, chain 3 of 3, further chain): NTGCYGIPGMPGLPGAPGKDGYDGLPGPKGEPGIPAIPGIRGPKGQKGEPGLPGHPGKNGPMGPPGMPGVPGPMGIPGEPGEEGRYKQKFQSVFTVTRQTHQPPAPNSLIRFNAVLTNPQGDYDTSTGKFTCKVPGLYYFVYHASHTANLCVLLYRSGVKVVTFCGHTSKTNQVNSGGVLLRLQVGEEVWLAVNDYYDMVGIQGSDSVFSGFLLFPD
human FcγRIIIa (F158 allele) (human), sequence (P08637 17-208 limits assumed): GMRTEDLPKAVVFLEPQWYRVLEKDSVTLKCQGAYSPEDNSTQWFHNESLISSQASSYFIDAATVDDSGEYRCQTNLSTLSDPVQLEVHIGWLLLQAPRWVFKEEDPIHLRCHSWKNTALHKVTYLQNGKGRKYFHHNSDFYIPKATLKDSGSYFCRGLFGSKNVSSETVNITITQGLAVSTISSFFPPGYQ
human FcγRIIIa (V158 allele) (human), sequence (P08637 17-208 F176V limits assumed): as the sequence (P08637 17-208 limits assumed) above, with F160V counted along it
human FcγRIIa (R131 allele) (human), sequence (P12318 34-218 H167R limits assumed): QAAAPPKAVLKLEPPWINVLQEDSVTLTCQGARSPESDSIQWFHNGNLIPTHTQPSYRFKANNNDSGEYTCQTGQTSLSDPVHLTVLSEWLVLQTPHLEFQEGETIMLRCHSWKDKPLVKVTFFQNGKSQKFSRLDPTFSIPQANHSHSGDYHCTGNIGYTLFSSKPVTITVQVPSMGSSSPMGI
human FcγRIIa (H131 allele) (human), sequence (P12318 34-218 limits assumed): as the sequence (P12318 34-218 H167R limits assumed) above, with R134H counted along it
human FcγRIIIb (human), sequence (O75015 17-200 limits assumed): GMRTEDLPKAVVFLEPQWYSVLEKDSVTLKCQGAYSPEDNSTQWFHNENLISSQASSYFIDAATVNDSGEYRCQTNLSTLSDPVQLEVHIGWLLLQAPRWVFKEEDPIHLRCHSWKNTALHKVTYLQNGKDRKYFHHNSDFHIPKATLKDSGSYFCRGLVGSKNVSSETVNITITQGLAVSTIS
human FcγRIIb (human), sequence (P31994 43-217 limits assumed): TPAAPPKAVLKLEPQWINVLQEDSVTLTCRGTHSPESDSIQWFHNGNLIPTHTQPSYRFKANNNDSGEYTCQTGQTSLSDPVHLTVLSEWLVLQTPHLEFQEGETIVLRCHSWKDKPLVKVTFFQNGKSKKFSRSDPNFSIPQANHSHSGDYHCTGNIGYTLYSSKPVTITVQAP

Take “IgG1 antibody with Fc variant G236A_Y300L”: the fold-change vs FY1 rIgG1m3 turned out to be 0.97 fold in [1]; 4.6 fold in experiment [2]; 0.9 fold in experiment [3]; 0.98 fold in experiment [4]; 1 fold in experiment [5]; 18.2 fold in experiment [6]. In addition, the fold-change vs FY1 rIgG1m3 in experiment [7] is 1.1 fold.

Consider “IgG1 antibody with Fc variant G236S_R292P_Y300L”, for which the fold-change vs wt is 1.04 fold in experiment [1]; 1.34 fold in [2]; 0.75 fold in experiment [3]; 1.06 fold in experiment [5]; 10.8 fold in experiment [6]; 0.82 fold in experiment [7]. The fold-change vs wt in experiment [8] came to 1.98 fold; in experiment [10] it was 0.87 fold; in experiment [16], 1.96 fold. Besides, the fold-change to WT Fc in [2] is 1.34 fold; in [3], 0.753 fold; in experiment [6], 10.9 fold; in experiment [7], 0.817 fold; in [8], 1.98 fold; in [9] it was 1.06 fold. Also, the fold-change to WT Fc in experiment [11] came out at 0.87 fold. The FcγR reporter signaling, fold-change vs wt [cont'd] in [12] was 1.32 fold; in experiment [13] it was 1.52 fold; in experiment [14] it was 2.24 fold; in experiment [15], 0.93 fold.

Turning to “G236A_A330L_I332E_M428L_N434S (antibody)”, the fold-change vs FY1 rIgG1m3 in experiment [1] stood at 1.4 fold; in [2], 1.3 fold; in [3], 1.6 fold; in [5] it was 9.4 fold; in experiment [17], 12.3 fold; in experiment [6], 2.9 fold. In addition, the fold-change vs FY1 rIgG1m3 in [7] turned out to be 0.4 fold. For the same substance, the fold-change vs FY1 rIgG1m3-MLNS in experiment [1] is 1.9 fold; in [2] it was 2.5 fold; in experiment [3], 2.1 fold; in experiment [5], 14.4 fold; in experiment [17], 0.68 fold; in [6], 3.8 fold. The fold-change vs FY1 rIgG1m3-MLNS in experiment [7] was 0.8 fold. Also, the fold-change vs wt is 1.4 fold in [1]; 1.27 fold in [2]; 1.56 fold in [3]; 9.41 fold in [5]; 2.89 fold in [6]; 0.42 fold in experiment [7]. For the same substance, the fold-change vs wt in [8] is 0 fold; in [10], 12.3 fold. Further, the fold-change to WT Fc came out at 1.56 fold in experiment [3], 2.89 fold in [6], 0.422 fold in [7] and 12.3 fold in [11]. Further, the FcγR reporter signaling, fold-change vs wt [cont'd] in [12] came out at 3.92 fold; in experiment [13], 13.5 fold; in [14], 2.32 fold; in experiment [15] it was 0.35 fold.

Consider GRLR (Fc-LS) (antibody), for which the fold-change vs FY1 rIgG1m3-MLNS in [1] was 0.7 fold; in experiment [2], 0.38 fold; in [3] it was 0.08 fold; in experiment [5] it was 0.25 fold; in experiment [17], 0.69 fold; in experiment [6], 0.28 fold. Besides, the fold-change vs FY1 rIgG1m3-MLNS in [7] came to 0.38 fold.

As for GA (Fc-LS) (antibody), the fold-change vs FY1 rIgG1m3-MLNS in [1] stood at 0.84 fold; in experiment [2], 6.9 fold; in experiment [3] it was 0.52 fold; in experiment [4] it was 0.35 fold; in experiment [5], 0.93 fold; in [17], 0.95 fold. For the same substance, the fold-change vs FY1 rIgG1m3-MLNS in experiment [6] turned out to be 10 fold; in [7], 1.1 fold.

“IgG1 antibody with Fc variant G236A_P230A_Q295E”: the fold-change in binding vs wild-type IgG1 was 0.31 in [18]; 0.72 in experiment [19]; 4.57 in experiment [20]; 0.48 in experiment [21]; 0.93 in experiment [22]; 0.48 in [23]. In addition, the fold-change in binding vs wild-type IgG1 in [24] came out at 7.59. Moreover, the fold-change vs wt is 0.72 fold in experiment [1]; 4.57 fold in experiment [2]; 0.31 fold in experiment [3]; 0.48 fold in experiment [5]; 7.67 fold in [6]; 0.54 fold in [7]. Besides, the fold-change vs wt in [8] was found to be 0.3 fold; in experiment [10] it was 0.93 fold. The FcγR reporter signaling, fold-change vs wt [cont'd] in experiment [12] stood at 0.06 fold; in experiment [13], 0.02 fold; in experiment [14], 2.29 fold; in experiment [15], 0.56 fold.

Take G236A_R292P_I377N-afuc (antibody): the FcγR reporter signaling, fold to wt-fucose [cont'd] in experiment [25] is 3.94 fold; in experiment [26], 9.68 fold. Moreover, the fold-change (reference not given) in experiment [1] was 1.2 fold; in experiment [2] it was 1.4 fold; in [3], 7.1 fold; in [5], 14.8 fold; in experiment [6], 5.5 fold; in [7] it was 0.6 fold. The fold to wt-fucose was 1.2 fold in experiment [27]; 1.35 fold in experiment [28]; 7.14 fold in experiment [29]; 14.8 fold in experiment [9]; 0.8 fold in experiment [10]; 5.54 fold in experiment [30]. Further, the fold to wt-fucose in experiment [31] turned out to be 0.6 fold.

As to L309T_P238D_P396L_T366A (antibody), the FcγR reporter signaling, fold-change vs wt [cont'd] came out at 0.05 fold in experiment [32], 0.04 fold in experiment [33] and 0.91 fold in experiment [34].

As to “IgG1 antibody with Fc variant G236A_K334A_Q295E”, the fold-change in binding vs wild-type IgG1 amounted to 0.27 in experiment [18]; 0.72 in experiment [19]; 2.88 in experiment [20]; 0.4 in [21]; 1.02 in experiment [22]; 0.74 in experiment [23]. In experiment [24], the fold-change in binding vs wild-type IgG1 is 5.01. In addition, the fold-change vs wt turned out to be 0.72 fold in experiment [1]; 2.92 fold in experiment [2]; 0.27 fold in [3]; 0.74 fold in [5]; 4.96 fold in [6]; 0.67 fold in experiment [7]. For the same substance, the fold-change vs wt in experiment [8] was 0.9 fold; in [10], 1.02 fold. In addition, the FcγR reporter signaling, fold-change vs wt [cont'd] was 0.36 fold in experiment [12], 0.23 fold in [13], 2.13 fold in experiment [14] and 0.8 fold in experiment [15].

As to “IgG1 antibody with Fc variant G236A (afucosylated)”, the fold-change (reference not given) was 2.1 fold and 1.8 fold in experiment [1]; 6.1 fold and 9.9 fold in experiment [2]; 6.7 fold in [3]; 0.16 fold in experiment [4]; 17.2 fold and 35.6 fold in experiment [5]; 5.4 fold and 9.5 fold in [6]. Also, the fold-change (reference not given) in [7] is 0.6 fold and 1.1 fold.

In the case of G236A (antibody), the fold-change vs FY1 rIgG1m3 in experiment [1] is 0.82 fold; in experiment [2], 4.8 fold and 6.3 fold; in [3] it was 0.4 fold and 0.6 fold; in [4], 0.59 fold and 0.36 fold; in experiment [5], 0.6 fold and 0.8 fold; in experiment [6], 5.9 fold and 12.1 fold. Also, the fold-change vs FY1 rIgG1m3 in [7] was 0.6 fold and 1.1 fold.

(Values after patent publication US20260184814A1, “BROADLY NE[…] INFLUENZA NEURAMINIDASE” (priority 2022, published 2026).)
